33 molecules from patent US20030059769, “High affinity nucleic acid ligands to lectins” (published 2003) can be followed below.

The labels stand for the following.
T1: L-selectin (LS-Rg) (Homo sapiens, UniProt P14151 P14151:39-332)
T1 sequence: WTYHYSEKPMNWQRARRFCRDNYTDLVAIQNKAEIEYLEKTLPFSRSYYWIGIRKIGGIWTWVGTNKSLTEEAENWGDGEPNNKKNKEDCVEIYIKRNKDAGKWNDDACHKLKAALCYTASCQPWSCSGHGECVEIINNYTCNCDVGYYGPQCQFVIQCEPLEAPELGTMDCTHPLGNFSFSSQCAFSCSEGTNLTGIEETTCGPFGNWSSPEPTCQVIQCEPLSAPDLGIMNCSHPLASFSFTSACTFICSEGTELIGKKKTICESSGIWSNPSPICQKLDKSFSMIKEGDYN

B1: LF1513 (ssRNA)
RNA: GGGAGGACGAUGCGGGCUCUUCAGCAACGUGUUAUCAAGUUAGCCCAGACGACUCGCCCGA
modifications: 2'-F on all C and U
B2: LF1508 (ssRNA)
RNA: GGGAGGACGAUGCGGGACCCUUAGGCAACGUGUUUUCAAGUUGGUCAGACGACUCGCCCGA
modifications: 2'-F on all C and U
B3: LF1523 (ssRNA)
RNA: GGGAGGACGAUGCGGUUCUUAAGCAGCGCGUCAAUCGAGCUAACCCAGACGACUCGCCCGA
modifications: 2'-F on all C and U
B4: LF1518 (ssRNA)
RNA: GGGAGGACGAUGCGGGCAAAUUGCAUGCGUUUUCGAGUGCUUGCUCAGACGACUCGCCCGA
modifications: 2'-F on all C and U
B5: LF1615 (ssRNA)
RNA: GGGAGGACGAUGCGGCGUAACUUCAGCGGUGUGUUAAUCAAGCCUUACGCCAUCUCAGACGACUCGCCCGA
modifications: 2'-F on all C and U
B6: LF1610 (ssRNA)
RNA: GGGAGGACGAUGCGGAGGGUCUUAAGCAGUGUGAUAAUCAAACUACUCUCCGUGUCAGACGACUCGCCCGA
modifications: 2'-F on all C and U
B7: LF1811 (ssRNA)
RNA: GGGAGGACGAUGCGGUAAUCUCUUAGGCAUCGCGUUAAUCGAGAUAGAUCACCGUCAGACGACUCGCCCGA
modifications: 2'-F on all C and U
B8: LF1613 (ssRNA)
RNA: GGGAGGACGAUGCGGUGCUAUUCUUAAGCGGCGUGUUUUUCAAGCCAAUAUCAUCAGACGACUCGCCCGA
modifications: 2'-F on all C and U
B9: LF1514 (ssRNA)
RNA: GGGAGGACGAUGCGGUACCUCAAAUUGCGUGUUUUCAAGCAGUAUCAGACGACUCGCCCGA
modifications: 2'-F on all C and U
B10: LF1807 (ssRNA)
RNA: GGGAGGACGAUGCGGAGUCUUAGGCAGCGCGUUUUCGAGCUACUCCAUCGCCAGUCAGACGACUCGCCCGA
modifications: 2'-F on all C and U
B11: PF416 (ssRNA)
RNA: GGGAGACAAGAAUAAACGCUCAACAGUUCACUCAACCGGCACCAGACUACGAUCAGCAUUGGCGAGUGAACACUUCGACAGGAGGCUCACAACAGGC
modifications: 2'-F C and U
B12: PF417 (ssRNA)
RNA: GGGAGACAAGAAUAAACGCUCAAAAAGACGUAUUCGAUUCGAAACGAGAAAGACUUCAAGUGAGCCCGCAGUUCGACAGGAGGCUCACAACAGGC
modifications: 2'-F C and U
B13: PF388 (ssRNA)
RNA: GGGAGACAAGAAUAAACGCUCAACUGGCAACGGGAUAACAACAAAUGUCACCAGCACUAGCGAGACGGAAGGUUCGACAGGAGGCUCACAACAGGC
modifications: 2'-F C and U
B14: PF378 (ssRNA)
RNA: GGGAGACAAGAAUAAACGCUCAACGAUGAGCGUGACCGAAGCUAUAAUCAGGUCGAUUCACCAAGCAAUCUUAUUCGACAGGAGGCUCACAACAGGC
modifications: 2'-F on all C and U
B15: PF422 (ssRNA)
RNA: GGGAGACAAGAAUAAACGCUCAACGUCAAGCCAGAAUCCGGAACACGCGAGAAAACAAAUCAACGACCAAUCGAUUCGACAGGAGGCUCACAAAGGC
modifications: 2'-F on all C and U
B16: PF411 (ssRNA)
RNA: GGGAGACAAGAAUAAACGCUCAACAACCCAACCAUCUAGAGCUUCGAACCAUGGUAUACAAGGGAACACAAAAUUCGCGGAGGCUCCAACAGGCGGC
modifications: 2'-F on all C and U
B17: PF396 (ssRNA)
RNA: GGGAGACAAGAAUAAACGCUCAAGCGGUCAGAAACAAUAGCUGGAUACAUACCGCGCAUCCGCUGGGCGAUAUUCGACAGGAGGCUCACAACAGGC
modifications: 2'-F on all C and U
B18: PF380 (ssRNA)
RNA: GGGAGACAAGAAUAAACGCUCAACGAGCAAAAGUACUCACGGGACCAGGAGAUCAGCAACACGCGAGACGAAAUUCGACAGGAGGCUCACAACAGGC
modifications: 2'-F on all C and U
B19: PF412 (ssRNA)
RNA: GGGAGACAAGAAUAAACGCUCAACGACCACAAUACAAACUCGUAUGGAACACGCGAGCGACAGUGACGCAUUUUCGACAGGAGGCUCACAACAGGC
modifications: 2'-F on all C and U
B20: PF381 (ssRNA)
RNA: GGGAGACAAGAAUAAACGCUCAAAGGAUCACACAAACAUCGGUCAAUAAAUAAGUAUUGAUAGCGGGGAUAUUCGACAGGAGGCUCACAACAGGC
modifications: 2'-F on all C and U
B21: PF373 (ssRNA)
RNA: GGGAGACAAGAAUAAACGCUCAACGAAUCAGUAAACAUAACACCAUGAAACAUAAAUAGCACGCGAGACGUCUUCGACAGGAGGCUCACAACAGGC
modifications: 2'-F on all C and U
B22: PF395 (ssRNA)
RNA: GGGAGACAAGAAUAAACGCUCAACGAGCAAGGAACGAAUACAAACCAGGAAACUCAGCAACACGCGAGCAGUAAGAAUUCGACAGGAGGCUCACAACAGGC
modifications: 2'-F on all C and U
B23: PF377M4 (ssRNA)
RNA: CUCAACGAGCCAGGAACAUCGACGUCAGCAAACGCGAG
modifications: 2'-F C and U; 2'-OMe G 7,9,13,14,21,24,28,36 and A 8,15,18,22,27,30,31,37 as listed

The first series concerns the target T1, L-selectin (LS-Rg). Nature of the series: filter; 37 C, SHMCK-140. As to conditions: tags: human IgG2 Fc fusion; chain copies: dimer; label: 32P. The procedure: As described in SELEX Patent Applications, a nitrocellulose filter partitioning method was used to determine the affinity of RNA ligands for LS-Rg and for other proteins. Filter discs (nitrocellulose/cellulose acetate mixed matrix, 0.45 μm pore size, Millipore) were placed on a vacuum manifold and washed with 3 ml of SHMCK 140 buffer under vacuum. Reaction mixtures, containing ³²P labeled RNA pools and unlabeled LS-Rg, were incubated in SHMCK 140 for 10-20 min at 37° C., and then immediately washed with 3 ml SHMCK 140. The filters were air-dried and counted in a Beckman LS6500 liquid scintillation counter without fluor. Alternatively, binding studies employed 96 well micro-titer manifolds essentially as described in Example 13, paragraph E.
These calculations assume two ligand binding sites per chimera.
For orientation: Kd means the equilibrium constant for the complex coming apart. B1 showed a Kd of 0.16 nM. Still for that read-out and setting: the value for B2 was 0.5 nM; that for B3 was 0.25 nM; that for B4 was 0.42 nM. As to B5, the Kd amounted to 0.32 nM. B6 returned a Kd of 0.53 nM.

B7 gave a Kd of 0.19 nM. Turning to B8, binding was put at a Kd of 0.034 nM.

The series is the same for the next values; noted with them: tags: human IgG2 Fc fusion; chain copies: dimer; label: 32P; hairpin with 7-nt bulge.
Take B9: the equilibrium dissociation constant (Kd) is 0.13 nM.

As to B10, the Kd worked out at 0.034 nM.

A further series deals with T2, P-selectin (PS-Rg) (Homo sapiens, UniProt P16109 P16109:42-321). In words: filter; HSMC, 37 C. The settings on record: tags: human IgG Fc fusion; chain copies: 2 (stated dimer).
T2 sequence (P16109 42-321, one chain of several): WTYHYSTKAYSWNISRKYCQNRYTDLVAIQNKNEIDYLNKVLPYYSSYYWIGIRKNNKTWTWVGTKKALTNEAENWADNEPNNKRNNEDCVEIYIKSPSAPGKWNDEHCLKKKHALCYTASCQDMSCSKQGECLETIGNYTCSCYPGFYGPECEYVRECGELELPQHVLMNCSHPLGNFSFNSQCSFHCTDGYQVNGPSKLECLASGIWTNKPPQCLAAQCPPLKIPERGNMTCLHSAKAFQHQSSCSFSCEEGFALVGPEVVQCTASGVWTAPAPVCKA
B11 yielded a Kd of 0.063 nM. Same read-out and setting: the value for B12 was 0.069 nM. As to B13, the Kd was 0.09 nM.

For another series, the target named is T2, P-selectin (PS-Rg). In words: filter; 37 C, HSMC. As to conditions: tags: human IgG1 Fc fusion; chain copies: dimer; label: 32P.
Molecule B14 gave an equilibrium dissociation constant (Kd) of 0.0515 nM. Molecule B15 showed a Kd of 0.172 nM. B16 yielded an equilibrium dissociation constant (Kd) of 0.013 nM.

B17 registered a Kd of 0.024 nM. Take B18: the Kd was 0.0745 nM. In turn, B19 registered a Kd of 0.45 nM.

Turning to B20, the Kd came out at 0.0165 nM. Still for that read-out and setting: the value for B21 was 0.0495 nM. The molecule B22 registered a dissociation constant Kd of 0.026 nM.

The next series concerns the target T2, P-selectin (PS-Rg). In words: inhibition; sialyl-LewisX. As to conditions: tags: human IgG Fc fusion; chain copies: 2 (stated dimer). The procedure: The ability of evolved RNA pools or cloned ligands to inhibit the binding of PS-Rg to sialyl-Lewis^x was tested in competitive ELISA assays (C. Foxall et al., 1992, supra). For these assays, the wells of Corning (25801) 96 well microtiter plates were coated with 100 ng of a sialyl-Lewis^x/BSA conjugate, air dried overnight, washed with 300 μl of PBS(−) and then blocked with 1% BSA in HSMC for 60 min at room temperature. RNA ligands were incubated with PS-Rg in HSMC/1% BSA at room temperature for 15 min. After removal of the blocking solution, 50 μl of PS-Rg (10 nM) or a PS-Rg (10 nM)/RNA ligand mix was added to the coated, blocked wells and incubated at room temperature for 60 minutes. The binding solution was removed, wells were washed with 300 μl of PBS(−) and then probed with HRP conjugated anti-human IgG, at room temperature to quantitate PS-Rg binding. After a 30 minute incubation at room temperature in the dark with OPD peroxidase substrate (Sigma P9187), the extent of PS-Rg binding and percent inhibition was determined from the OD₄₅₀.
The term IC50 denotes the concentration that inhibits the measured activity by half. A higher IC50 goes with a need for much substance. In turn, CUCAACGAGCCAGGAACAUCGACGUCAGCAAACGCGAG (ssRNA, 2'-F C and U; 2'-OMe G 7,9,14,21,36 and A 8,15,18,22,27,31,37 as listed) [PF377M3] came in with a half-maximal inhibitory concentration (IC50) of 10 nM.

In the case of CUCAACGAGCCAGGAACAUCGACGUCAGCAAACGCGAG (ssRNA, 2'-F C and U, biotin) [PF377s1B], half-maximal inhibition (IC50) required 3 nM. Still for that read-out and setting: under CACUCAACCGGCACCAGACUACGAUCAGCAUUGGCGAGUG (ssRNA, 2'-F C and U) [PF416s2] stands 3 nM; under CGCUCAACGAGCCAGGAACAUCGACGUCAGCAAACGCGAGCG (ssRNA, 2'-F C and U) [PF377s2], 4 nM.

The same series, now with this note: tags: human IgG Fc fusion; chain copies: 2 (stated dimer); label: fluorescein (inferred).
For CUCAACGAGCCAGGAACAUCGACGUCAGCAAACGCGAG (ssRNA, 2'-F C and U) [PF377s1F], the concentration for half-maximal inhibition (IC50) is 3 nM.

A further series deals with T2, P-selectin (PS-Rg). Nature of the series: filter; HSMC. The settings on record: tags: human IgG1 Fc fusion; chain copies: dimer.
Consider CUCAACGAGCCAGGAACAUCGACGUCAGCAAACGCGAG (ssRNA, 2'-F on all C and U; 2'-OMe purines at 11 positions) [PF377M6], for which the Kd turned out to be 0.25 nM. Regarding GAAUCCGGAACACGCGAGAAAACAAAUCAACGACCAAUCGAUUCG (ssRNA, 2'-F on all C and U) [PF422s1], the Kd was 1 nM. CUCAACGAAUCAGUAAACAUAACACCAUGAAACAUAAAUAGCACGCGAG (ssRNA, 2'-F on all C and U) [PF373s1] returned a Kd of 0.056 nM. For the molecule CUCAACGAGCCAGGACUACGAUCAGCAAACGCGAG (ssRNA, 2'-F on all C and U) [PF377L1], binding was put at a Kd of 0.22 nM.

Still in this series, the particulars now being: tags: human IgG Fc fusion; chain copies: 2 (stated dimer).
CUCAACGAGCCAGGAACAUCGACGUCAGCAAACGCGAG (ssRNA, 2'-F C and U; 2'-OMe G7 G9 G14 G21 A8 A15 A18 A22 A27 A31) [PF377M1]: the dissociation constant (Kd) is 0.12 nM. Still for that read-out and setting: the value for CUCAACGAGCCAGGAACAUCGACGUCAGCAAACGCGAG (ssRNA, 2'-F C and U; 2'-OMe G 7,9,14,21,36 and A 8,15,18,22,27,31,37 as listed) [PF377M3] was 0.9 nM; that for CUCAACGAGCCAGGAACAUCGACGUCAGCAAACGCGAG (ssRNA, 2'-F C and U, biotin) [PF377s1B] was 0.065 nM; that for B23 was 1.7 nM.

In turn, CACUCAACCGGCACCAGACUACGAUCAGCAUUGGCGAGUG (ssRNA, 2'-F C and U) [PF416s2] came in with a Kd of 0.15 nM. CGCUCAACGAGCCAGGAACAUCGACGUCAGCAAACGCGAGCG (ssRNA, 2'-F C and U) [PF377s2] came in with a Kd of 0.045 nM.

The series is the same for the next values; noted with them: tags: human IgG Fc fusion; chain copies: 2 (stated dimer); label: fluorescein (inferred).
CUCAACGAGCCAGGAACAUCGACGUCAGCAAACGCGAG (ssRNA, 2'-F C and U) [PF377s1F] displayed an equilibrium dissociation constant (Kd) of 0.06 nM.
